How the values were obtained:
[1] = target: YY1 cellular transcription factor (UniProt P25490); assay: co-immunoprecipitation (FLAG-EBNA-LP IP, YY1 immunoblot, band signal quantified); conditions: 50% IP lanes; trans-complemented LPKO LCLs from total B cells; parent: 1.0
[2] = target: YY1 cellular transcription factor (UniProt P25490); assay: co-immunoprecipitation (YY1 IP, FLAG-EBNA-LP immunoblot, band signal quantified); conditions: 50% IP lanes; trans-complemented LPKO LCLs; parent: 1

Chain of UniProt P25490 (P25490 whole entry): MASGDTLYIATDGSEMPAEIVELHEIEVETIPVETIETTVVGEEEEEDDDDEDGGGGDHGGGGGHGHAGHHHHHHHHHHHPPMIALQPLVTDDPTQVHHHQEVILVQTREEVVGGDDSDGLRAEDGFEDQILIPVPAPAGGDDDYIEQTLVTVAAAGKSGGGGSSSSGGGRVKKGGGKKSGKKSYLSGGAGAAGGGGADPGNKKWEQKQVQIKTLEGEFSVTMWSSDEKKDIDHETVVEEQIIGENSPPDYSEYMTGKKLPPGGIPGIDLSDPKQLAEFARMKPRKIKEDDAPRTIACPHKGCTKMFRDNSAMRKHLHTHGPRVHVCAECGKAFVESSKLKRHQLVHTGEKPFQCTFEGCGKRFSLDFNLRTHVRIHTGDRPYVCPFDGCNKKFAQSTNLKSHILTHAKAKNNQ

## FLAG-EBNA-LP, wild type (B95-8), four W domains W:L25A; W:L28A; W:L29A; Y:L13A; Y:L17A; Y:L18A
[1]
  response: 0.01
[2]
  response: 0
